The labels stand for the following.
B1: VDR (parent)
chain: VTLELSQLSMLPHLADLVSYSIQK
B2: FBXO39 (parent)
chain: RVFKARIYTNRYETNEEDKTLQEI
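Also: lentivirally expressed fusions sorted by FACS into six bins by GFP to DsRed ratio, PSI derived from sequencing read proportions per bin multiplied by bin number.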

Variants of B1 are the subject of one data set. The experiment in a line: protein stability index of a GFP-peptide fusion (GPS, HEK-293T) (PSI 1-6); higher = more stable. Conditions: c terminus: a fixed tail appended.
Consider VTLELSQLSMLRHLADLVSYSIQK [P12R], for which the protein stability index amounted to 3.79.
Consider VTLELSQLSMLLHLADLVSYSIQK [P12L], for which the protein stability index was found to be 3.04.
In the case of VTLELSQLSMLPHLHDLVSYSIQK [A15H], the protein stability index stood at 4.28.
For VTLELSQLSMLPHLMDLVSYSIQK [A15M], the protein stability index turned out to be 2.78.
As for VTLELSQLVMLPHLADLVSYSIQK [S9V], the protein stability index worked out at 2.74.
Consider VTLELSQLFMLPHLADLVSYSIQK [S9F], for which the protein stability index came to 2.67.
For VTLELSQLSILPHLADLVSYSIQK [M10I], the protein stability index amounted to 2.35.
In the case of FTLELSQLSMLPHLADLVSYSIQK [V1F], the protein stability index was found to be 2.61.
For VTLELSQLSMLPHLADLVSYSISK [Q23S], the protein stability index worked out at 2.05.
Regarding VTLELHQLSMLPHLADLVSYSIQK [S6H], the protein stability index was determined as 3.94.
On the same count and under the same terms, to VTLELKQLSMLPHLADLVSYSIQK [S6K] belongs 1.81; to VTLELSQLSMLPKLADLVSYSIQK [H13K], 2.92; to VTLELSQLSMLPVLADLVSYSIQK [H13V], 1.98.
In the case of VTLELSQLSMLPQLADLVSYSIQK [H13Q], the protein stability index stood at 1.8.
As for VTLELSQLSMLPHLADLVSYGIQK [S21G], the protein stability index is 2.48.
On to VTLELSQLSMLPHLADLVSYYIQK [S21Y], for which the protein stability index worked out at 2.45.
As for VTLETSQLSMLPHLADLVSYSIQK [L5T], the protein stability index came out at 2.04.
VTLEHSQLSMLPHLADLVSYSIQK [L5H]: the protein stability index was 2.33.
Take VTLELSQLSMLPHLADNVSYSIQK [L17N]: the protein stability index came out at 1.77.
For VTLELSQLSMLPHLADKVSYSIQK [L17K], the protein stability index was 1.68.
Still for that read-out and setting: to VTLELSQLSMLPHLADWVSYSIQK [L17W] belongs 3.14; to VTLELSQLSMRPHLADLVSYSIQK [L11R], 1.94.
With VTLELSQLSMQPHLADLVSYSIQK [L11Q], the protein stability index was 2.42.
For the variant VTLELSQLSMFPHLADLVSYSIQK [L11F], the protein stability index was determined as 2.5.
With VTLELSQWSMLPHLADLVSYSIQK [L8W], the protein stability index stood at 1.82.
Consider VTLELSQQSMLPHLADLVSYSIQK [L8Q], for which the protein stability index is 1.54.
As for VTLELSRLSMLPHLADLVSYSIQK [Q7R], the protein stability index turned out to be 2.33.
The same measure, in the same setting: to VTLELSQLSMLPHQADLVSYSIQK [L14Q] belongs 2.22; to VTLELSQLSMLPHIADLVSYSIQK [L14I], 3.33; to VTLELSQLSMLPHSADLVSYSIQK [L14S], 1.66.
As to VTLTLSQLSMLPHLADLVSYSIQK [E4T], the protein stability index was found to be 2.67.
Turning to VTLELSQLSMLPHLADLVTYSIQK [S19T], the protein stability index came to 3.23.
Consider VTLELSQLSMLPHLADLVCYSIQK [S19C], for which the protein stability index is 2.33.
On the same count and under the same terms, the result for VTLELSQLSMLPHLADLVSRSIQK [Y20R] reads 3.61; that for VTLELSQLSMLPHLADLVSWSIQK [Y20W], 2.91; that for VTLELSQLSMLPHLADLVSYSDQK [I22D], 2.23.
For VTLELSQLSMLPHLADLVSYSTQK [I22T], the protein stability index stood at 1.87.
On the same count and under the same terms, to VTYELSQLSMLPHLADLVSYSIQK [L3Y] belongs 2.81; to VTMELSQLSMLPHLADLVSYSIQK [L3M], 3.15.
Consider VTLELSQLSMLPHLAWLVSYSIQK [D16W], for which the protein stability index stood at 2.26.
Take VTLELSQLSMLPHLAYLVSYSIQK [D16Y]: the protein stability index came out at 2.31.
Turning to VTLELSQLSMLPHLACLVSYSIQK [D16C], the protein stability index was 3.86.
In the case of VTLELSQLSMLPHLAMLVSYSIQK [D16M], the protein stability index was 3.71.

Another data set covers variants of B2. The description is as above. Conditions: c terminus: a fixed tail appended.
Consider RVFKAEIYTNRYETNEEDKTLQEI [R6E], for which the protein stability index stood at 4.25.
As for RVFKAYIYTNRYETNEEDKTLQEI [R6Y], the protein stability index is 2.62.
On the same count and under the same terms, the result for RVFKAQIYTNRYETNEEDKTLQEI [R6Q] reads 3.71; that for RVFKAPIYTNRYETNEEDKTLQEI [R6P], 4.08; that for RVFKAWIYTNRYETNEEDKTLQEI [R6W], 1.92.
Consider RVFKAIIYTNRYETNEEDKTLQEI [R6I], for which the protein stability index was 1.9.
For the variant RVFKAKIYTNRYETNEEDKTLQEI [R6K], the protein stability index came out at 3.01.
For the variant RVFKANIYTNRYETNEEDKTLQEI [R6N], the protein stability index worked out at 3.72.
Consider RVFKAFIYTNRYETNEEDKTLQEI [R6F], for which the protein stability index was found to be 1.41.
Same read-out and setting: to RVFKAAIYTNRYETNEEDKTLQEI [R6A] belongs 3.66.
For the variant RVFKAVIYTNRYETNEEDKTLQEI [R6V], the protein stability index was found to be 2.21.
Consider RVFKACIYTNRYETNEEDKTLQEI [R6C], for which the protein stability index was determined as 2.77.
As for RVFKATIYTNRYETNEEDKTLQEI [R6T], the protein stability index is 3.79.
The same measure, in the same setting: the result for RVFKAHIYTNRYETNEEDKTLQEI [R6H] reads 2.83; that for RVFKAGIYTNRYETNEEDKTLQEI [R6G], 3.7; that for RVFKAMIYTNRYETNEEDKTLQEI [R6M], 1.99.
Turning to RVFKASIYTNRYETNEEDKTLQEI [R6S], the protein stability index came to 3.37.
With RVFKADIYTNRYETNEEDKTLQEI [R6D], the protein stability index came to 4.04.
Regarding RVFKSRIYTNRYETNEEDKTLQEI [A5S], the protein stability index came to 2.71.
In the case of RVFKFRIYTNRYETNEEDKTLQEI [A5F], the protein stability index was 1.63.
Consider RVFKNRIYTNRYETNEEDKTLQEI [A5N], for which the protein stability index worked out at 3.95.
In the case of RVFKQRIYTNRYETNEEDKTLQEI [A5Q], the protein stability index turned out to be 2.7.
Take RVFKWRIYTNRYETNEEDKTLQEI [A5W]: the protein stability index worked out at 2.34.
As for RVFKTRIYTNRYETNEEDKTLQEI [A5T], the protein stability index was found to be 2.1.
With RVFKPRIYTNRYETNEEDKTLQEI [A5P], the protein stability index is 3.05.
With RVFKCRIYTNRYETNEEDKTLQEI [A5C], the protein stability index came to 3.51.
On the same count and under the same terms, to RVFKVRIYTNRYETNEEDKTLQEI [A5V] belongs 1.67; to RVFKYRIYTNRYETNEEDKTLQEI [A5Y], 2.19.
The same measure, in the same setting: the result for RVFKHRIYTNRYETNEEDKTLQEI [A5H] reads 3.04; that for RVFKKRIYTNRYETNEEDKTLQEI [A5K], 2.69.
Consider RVFKIRIYTNRYETNEEDKTLQEI [A5I], for which the protein stability index worked out at 2.2.
With RVFKRRIYTNRYETNEEDKTLQEI [A5R], the protein stability index worked out at 3.49.
On to RVFKERIYTNRYETNEEDKTLQEI [A5E], for which the protein stability index came out at 4.48.
RVFKLRIYTNRYETNEEDKTLQEI [A5L]: the protein stability index is 3.33.
For the variant RVFKMRIYTNRYETNEEDKTLQEI [A5M], the protein stability index worked out at 3.02.
Turning to RVFKDRIYTNRYETNEEDKTLQEI [A5D], the protein stability index was 4.39.
With RVFKGRIYTNRYETNEEDKTLQEI [A5G], the protein stability index stood at 3.1.
As to RVWKARIYTNRYETNEEDKTLQEI [F3W], the protein stability index was 2.65.
Turning to RVEKARIYTNRYETNEEDKTLQEI [F3E], the protein stability index was determined as 5.23.
Regarding RVAKARIYTNRYETNEEDKTLQEI [F3A], the protein stability index came to 4.19.
RVPKARIYTNRYETNEEDKTLQEI [F3P]: the protein stability index amounted to 4.55.
As to RVHKARIYTNRYETNEEDKTLQEI [F3H], the protein stability index was found to be 4.63.
On to RVCKARIYTNRYETNEEDKTLQEI [F3C], for which the protein stability index is 2.82.
Regarding RVRKARIYTNRYETNEEDKTLQEI [F3R], the protein stability index amounted to 4.71.
Regarding RVTKARIYTNRYETNEEDKTLQEI [F3T], the protein stability index came to 4.88.
Consider RVGKARIYTNRYETNEEDKTLQEI [F3G], for which the protein stability index was determined as 4.12.
Take RVLKARIYTNRYETNEEDKTLQEI [F3L]: the protein stability index worked out at 3.05.
On to RVQKARIYTNRYETNEEDKTLQEI [F3Q], for which the protein stability index is 4.59.
Consider RVVKARIYTNRYETNEEDKTLQEI [F3V], for which the protein stability index was 4.15.
Same read-out and setting: the result for RVDKARIYTNRYETNEEDKTLQEI [F3D] reads 5.46; that for RVNKARIYTNRYETNEEDKTLQEI [F3N], 4.76.

Source of the values: the supplement of paper PMC10567573.
